According to the DeepSol protein solubility set:

Experiment: soluble on expression in E. coli; label from the status in PepcDB or PDB records

Sequence | soluble on expression in E. coli
MGSDKIHHHHHHMCQGLMTHSRCVKSNTMFSIRIKAGRKAYEQIRDGGFSCDRISAFFAPAAGPRWLVATGFDLTLLKAGLLGRKKPVQLIGSSSGAWRFAAWVQPEAEKSYLNLMEAYIRIPYHKDDRAGIVLQNLINVVNSYIEDDALPFALAHKHYRLAVLTARVRHLVASESSWIQSSGLFLCFLMNALSRSTLDHFTERVVFYNGPNPPGFCLKSPFRGRFIQLNRTNFKHAILASGAIPLFVAGIRDIYGAPRGVYRDGGLVDYHQTYDFAESDDDMTLFFHHQERIIPGWFDKRLKHRRTPDVLLDHTLMVFPTEDFVSTLPLGKLPDREDFRSFMDDPATRIRNWQEAVRRSAPLGEQFFELVESGKLRSMVERI | not soluble
MSLTASVAAAPDPASLAPELAHIAPALKAEILAQALPYIRKFHGKTIVIKYGGNAMTEEKLKHGFARDVILLKLVGMNPVVVHGGGPQIDDALKKVGKTGTFIQGMRVTDEETMEVVEWVLGGEVQQDIVMLINQYGGQAVGLTGKDGGLIRAKKLQMPDREKPGQFIDIGFVGDIETINPAVVRALQDDAFIPVISPIGFSDDGQAYNINADVVAGKMAEILKAEKLVMMTNIPGVLDKQGNLLTDLSAREIDELFADGTISGGMLPKISSALDAAKSGVHSVHIIDGRIEHSLLLEILTEQAFGTMIRSHEGHHHHHH | soluble
MAHHHHHHMTTLEKQLQSSTLSKQCRADLLNHVEEVETNSRRLPKKMITLPDPNLPSAVTMPTDNSVKRGTRSATAGANMARSLHYTTRKREKDEMVASRITSDRNLSGTYFKDCSHKFVNGARSWSDPFRSSRSRTALSGKDMDFVYRYAEAATGSAIERPQPADDASVAATAAYRKAFRQYKGRDPTAKEMEEAGRLVYAFDENCSVGVLQKPHSCYPHTHISAVKTHIRACPNQVYLPEVPPVRAARSEFPGPIPTWSSTKRTTTMATNGTYRPGHHQAKSLKWEAVSTVVGSR | not soluble
TTDPILFMLSLVQQCRLSPKLAYGVIAGFRFLPLLKDEVQLIQQAHKIRGGAAESGIINKISALKRYTIPLLASAIRKAERTALAMESKGFTGSRNRTYYRTLSVNRRD | not soluble
MGSDKIHHHHHHMMNIPPFINTIIGQQPYPLLFAIISGSHLYGFPSPDSDYDLRGVHILPVEEVVGLETGNETIEVSEIREALEIDLVTHDVKKFFLMLLKKNGYVLEQLYSPLVLTTSPEAEELKFIAKGCITRNHYYHYIGFAATQWKLFENERTYRLKPLLYVYRVLLTGIYLMQTGIVEANLMKLNEVFNLPYIHDLITQKIAGKEKSVVSNVNVDFHQIEYERLRHKLQEVYESSRLPEVPSANAALHNLLVRLRTNVKLRK | not soluble
MGSDKIHHHHHHVSEKMWGCCPNHWKSFGSSCYLISTKENFWSTSEQNCVQMGAHLVVINTEAEQNFITQQLNESLSYFLGLSDPQGNGKWQWIDDTPFSQNVRFWHPHEPNLPEERCVSIVYWNPSKWGWNDVFCDSKHNSICEMKKIYL | not soluble
MNSGPKVSVIMGIYNCERTLAESIESILSQSYKNWELILCDDASTDGTLRIAKQYAAHYSDRIKLIQNKTNKRLAASLNHCLSHATGDYIERQDGDDLSFPRRLEKQVAFLEKHRHYQVVGTGMLVFDEFGVRGARILPSVPEPGIMAKGTPFCHGTIMMRASAYRTLKGYRSVRRTRRMEDIDLWLRFFEEGFRGYNLQEALYKVREDSDAFKRRSFTYSIDNAILVYQACRRLKLPLSDYIYIAKPLIRAFMPAAVMNRYHKKRVMNQKEGLVKHELEHHHHHH | not soluble
MNLDKVNKYIKDFEKTIKKPKINFDKSKFYVGVDLGTANIVITILDKDGKPVAGVTQRSRVVRDGIVVDFMEAIEIVRKLKENLEKKLGIEITEGYTAIPPGVEQGSVRAIVNVIESAGIDVLKVVDEPTAASYVLGITDGVVVDLGGGTTGISILEKGKVIFVADEPTGGTHMTLVLAGSYGIDFETAEDIKTDKKKEKEVFVQITPVLQKMAAIVKKYIKDYKVKDVFLVGGACSFDGSESIFERELGLNIYKPYMPVYITPLGIALAGMKSLEHHHHHH | soluble
MGSDKIHHHHHHLRNSIDLTKKIKEKAFEEGFDAVGIAKVPGSSRIKLRTASLERWLQAGHQATMEWMKSPRRKDIENMLQGVKSILAVGLNYYVDTERESKDISIARYGWGKDYHKIIEEKLKKVAKFLETERPNAKWKICVDTSAFLDKAWAEEAGIGWIGKHSNVINSEIGSWMFLGHLLSTEVLEADKPSKPICGECEKCIEACPTKAIEEPFIVNSYKCLAYHTLENRDQELPENIINKMGNWIAGCDICQDVCPWNQKHIPSTTEPDLQPSEWILHTTKQDLLSWDDAKWKESLKNSALKRIKPWMWRRNIDSISKKT | not soluble
MSLKAVIFDLDGVITDTAEYHFLAWKHIAEQIDIPFDRDMNERLKGISREESLESILIFGGAETKYTNAEKQELMHRKNRDYQMLISKLTPEDLLPGIGRLLCQLKNENIKIGLASSSRNAPKILRRLAIIDDFHAIVDPTTLAKGKPDPDIFLTAAAMLDVSPADCAAIEDAEAGISAIKSAGMFAVGVGQGQPMLGADLVVRQTSDLTLELLHEEWEQYRIRESEGHHHHHH | soluble
MFPIKKRKAIKNNNINAAQIPKHIAIIMDGNGRWAKQKKMPRIKGHYEGMQTVRKITRYASDLGVKYLTLYAFSTENWSRPKDEVNYLMKLPGDFLNTFLPELIEKNVKVETIGFIDDLPDHTKKAVLEAKEKTKHNTGLTLVFALNYGGRKEIISAVQLIAERYKSGEISLDEISETHFNEYLFTANMPDPELLIRTSGEERLSNFLIWQCSYSEFVFIDEFWPDFNEESLAQCISIYQNRHRRFGGL | soluble
MKTLLQTTLKLLVASSLVLGMTASTLMAETKSKFQVAWTIYVGWMPWDYAAQSGILDKWAKKYGIEIEMVQVNDYVESINQYTAGKFDGCVMTNMDALTIPAAGGVNSTALIAGDFSNGNDGIILKGKKRLSEIKGQKVNLMELSVSHYLLARGLESVGLSERDVSVVNTSDADIVAAYSTKEVSALVTWNPQLSEVKSMKGANLVFDSSQIPGEIIDLMVLNTQTLKENPNLGKALTGAWFEVLALMKKGDLTALSAMAKASGTDLAGYKKQLESTKMFYEASEAVKFITSAELPETMKKVSEFSFEHGILGEGASSAAFVGMEFPGGKSFGDPKNLKLRFIDTYVKMAAEGKL | not soluble
MGSDKIHHHHHHMMSWADKYRPKNIDDVILNSEIRKQITEWIESWKEGIPKKRSLILYGSQGTGKTTTAYAIAGTFGVPVVEMNASDQRNRDSMRGTALMASLYGDLFVESAKRPSKVILIDEADNMFERGGDTGGIYELSKIIKNSANPIVITMNDIFEFRKKNYASDVISASLTIEMKQYGRKLDKNYNEFRRNIKARLIFILKNEGYTLPDQVVDRIIDRNMPDIRSMINDLEASAVSGTNISDQSSRDVPEIVYYMVDKAFKRNYDDTLRSIYGSDIDDSYYVSWIDENLPLKTVDLQDLVSAYEVISYADHILWAMERRRHYELMAFPMEIAGGVAYYIENMKHEYVKYQSPSYISQMSKTKEKRHAMMSLALKIGLLIHMGAQRTSEDLWFYSLLYQHNEKLRTFFEEKLNLTQGEENVLTRSE | not soluble
MPSNTSIRSNSNAIKARAPASAPKRPTSAEYVKKYTEYLATGHQIRHALQRLYDLNCSIQVFEECLTEKVILQKYTGQSEYQYPVTLLMNKFDDLRKREIRVANEKWSKNGELSAAMFTNKMVMEQRMKDLEKMDQKTANNLFVAALGDSCFIPKKKVDYSKFKITKRSKSSTSTSPSSSSSETSSPIA | not soluble
MSLKYYLAPMEGITGFIYRNSYEKFFGGIDKYFAPFVVPNSSKSLKTKELRDVLPENNKGINLVPQILTNDSEGFISTARKLKQLGYNEINLNLGCPSGTVVGKKRGSGFLAHKEELDKFLEEIFKIDDMKLSIKTRLGMDKPEEFYELIKIYNKYPMEELIIHPRTRQDFYANKPNLEVFKDAISLSKNPICYNGDIFTVEDHNKLIETFPEVDKIMLGRGILANPALMNEILNNEFMDKKVLKEFHDEVFNKYREVFNEDRNAMFRMKELWGYMIYMFSNNKKYAKKIKKAQKVVEYNQAVTSLFLEQDILKGAGLFSSEEGHHHHHH | soluble
MEKIKNTCKIWEYIYTISRDRLYQKIPKEEFLRLSTSDKEYLEAIKNLNNPKISELARDMGYTKTAVTTMVQKLEKNGYLKKIKSKEDKREINVELTDKGRYIFELKEEVYEYTIKRIKEVLTPQELGAFKAILEKIAKEFDQELGKIYEKNENIDKSDGPPII | not soluble
MGHHHHHHSHMDSKAIAERIKKLQAQQEHVRIGGKGTPRRKKKVIHKTAAADDKKLQSNLKKLSVTNIPGIEEVNMIKDDGTVIHFNNPKVQTSVPANTFSVTGSADNKQITEMLPGILNQLGPESLTHLKKLANNVTKLGPDGKGEDEDVPELVGDFDAASKNETKADEQ | not soluble
GSDDLVGVSVRPKVPLRTMSYKLAIDMSHFIKEKGGLEGIYYSARRHRILDIYLEKEEGIIPDWQDYTSGPGIRYPKTFGWLWKLVPVNVSDEAQEDEEHYLMHPAQTSQWDDPWGEVLAWKFDPTLAYTYEAYVRYPEEFGS | soluble
MSLGVQPPNFSWVLPGRLAGLALPRLPAHYQFLLDLGVRHLVSLTERGPPHSDSCPGLTLHRLRIPDFCPPAPDQIDRFVQIVDEANARGEAVGVHCALGFGRTGTMLACYLVKERGLAAGDAIAEIRRLRPGSIETYEQEKAVFQFYQRTKEGHHHHHH | soluble
MAEGDLSFFVMLARRESFSATAQDLGLSASAVSRRLARLEDRLGVRLLNRTTRKVSLTSEGEAYYGAALRLLDEIADLEHNLSQGRDRPAGLLRINATLGFGRTHLAPAIARFRRIHPAVEVQLLLTDAPLNLVEEGIDLGIRFGAPPFGRMVMRLLQRNRRFLCAAPSYLEARGVPQSLTDLQQHSCIVLRQDHDAYDVWRFDDIGEASPSAKVSGELSTNDGEIALAWVLDGQGIMLRSEWDIAQHVREGRLRLLLPHYRQTANIHAIYPERHNLSAKVRVFADHLAAHVRDADARMPLQLAAAELRAATARA | not soluble
MGSDKIHHHHHHMILDVDYVISAANITMQFGAKPLFENISVKFGNGNRYGLIGANGCGKSTFMRILSGEQEPSAGNVSLEPNIRIGKLRQDQFAYEDYSVVDAVIMGHEELWAVKEERDRIYSSGEMSEEDGMRVADLETEFAEMDGYTAESRAGELLLGLGIPVEQHFGLMSALAPGVKIRVLLAQVLFSEPDIMLLDEPTNNLDINTIRWLEGVLAEKQSTMIIISHDRHFLNTVCTHMADIDYGELRVYPGNYDEYMFAATQAREQLMSDNAKKKEKIAELQSFVSRFSANASKAKQATSRQKQMEKIQLDEVKASSRVNPYIRFTQEKKLYRLALETENVRKSFEDEAVLKGLSTSIEVGEKVAIIGANGIGKTTLLKCLMGEYTPDSGSIKWSENAAIGYYAQDHAHWFKQDMTVYEWMYQWKKPGDDEQAIRGVLGRMLFSSDDIQKPVSILSGGEKGRMIFGKLILQRPNILVMDEPTNHLDMESIESLNLALEQFEGTLLFVSHDREFVSTLATRIIEITDKGLRDFAGSYDEYLAQLAAA | not soluble
MNSLIPPPTSEQQMNMFRLRDKMSLLNAEFLKVINGYFTEKNHYDFSGTMKSYMDHVAQLKQIYKVDDDVAADMTVPRRTENSSESSGETVAPRKIAKAVRKNGTPKNPLNSTVFAASSPAATVASVPKFGDISVITKETPAPLAKTAEPLVAPAAPATARKRAIRGGGPLGGAESVVFKSGEDGQAATSSVKIPATTIKFPEPTKDFWTKKSDAPAAPSNSGSLFAFLGKELFSIKKNPPIYQNFSGDKPKETPKFSGFSFGKKPAEPSEEPKAADSTPKLTFGSPKEADLPKPASSLFGASPSKPLVFGGSSADSTTSAPKPFSALSTAASLFGSSSASTTTTATQPLSFGSSSTGGSSLFSGFAGLAQKAMENQNQAKPEGSGEDDEGEYVPPKVETVENQEPDAVLSSKVSVFKFTGKEYTKLGVGMLHIKDNDGKFSVLIRAATATGTVWLNSLCNKAMKATVVDAKGDRIRLTCPSSSTEMATMMIRFGTADGAKKFTDKILEVAV | not soluble
